Patent publication US20140235701, “NGF APTAMER AND APPLICATION THEREOF” (RIBOMIC INC., published 2014)

Experiments:
Settings in all cases: tags: R&D Systems; chain copies: 2
[1] = target: T1, NGF (nerve growth factor) (Homo sapiens, UniProt P01138 P01138:122-241); assay: cell_activity; neurite; TF-1 0.034
NT-3 (neurotrophin-3) = target: T2, NT-3 (neurotrophin-3) (Homo sapiens, UniProt P20783 P20783:139-257); assay: cell_activity; TF-1
T2 sequence: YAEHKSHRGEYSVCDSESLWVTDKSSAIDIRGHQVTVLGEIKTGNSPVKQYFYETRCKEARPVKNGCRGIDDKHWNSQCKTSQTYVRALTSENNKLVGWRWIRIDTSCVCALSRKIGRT

NT-4 (neurotrophin-4) = target: T3, NT-4 (neurotrophin-4) (Homo sapiens, UniProt P34130 P34130:81-210); assay: cell_activity; TF-1
T3 sequence: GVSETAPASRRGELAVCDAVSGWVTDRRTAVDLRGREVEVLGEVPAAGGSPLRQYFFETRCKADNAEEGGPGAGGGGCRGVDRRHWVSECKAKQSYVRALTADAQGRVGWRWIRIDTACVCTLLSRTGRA

[2] = target: T1, NGF (nerve growth factor); assay: cell_activity; neurite; TF-1 0.013
[3] = target: T1, NGF (nerve growth factor); assay: SPR; binding maintained on shortening
[4] = target: T1, NGF (nerve growth factor); assay: cell_activity; neurite; TF-1 0.021
[5] = target: T1, NGF (nerve growth factor); assay: cell_activity; neurite; TF-1 0.037
[6] = target: T1, NGF (nerve growth factor); assay: cell_activity; neurite; TF-1 0.022
[7] = target: T1, NGF (nerve growth factor); assay: cell_activity; neurite; TF-1 <0.03
[8] = target: T1, NGF (nerve growth factor); assay: SPR; inhibits NGF-receptor binding; inhibits neurite outgrowth at 10 nM

T1 sequence (P01138 122-241, one chain of several): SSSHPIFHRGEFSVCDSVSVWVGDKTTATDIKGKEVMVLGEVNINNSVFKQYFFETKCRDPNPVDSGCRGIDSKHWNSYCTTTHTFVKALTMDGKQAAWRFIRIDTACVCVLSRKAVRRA

GGGUCCUGGAUAAGAGUUUCCGUCUCGUAUCCUGUUACCC (ssRNA, as 82(1) except 2'-OMe C32) [SEQ ID NO: 82(13)]
IC50 [1]: 146 pM | IC50 (NT-3 (neurotrophin-3)): 48800 pM | IC50 (NT-4 (neurotrophin-4)): 3060 pM

GGGUCCUGAUUAAGAGUUUCCGUCUCGUAAUCUGUUACCC (ssRNA, 2'-OMe G (G8,G34 2'-OH), dA, 2'-F C/U; 5',3' idT) [SEQ ID NO: 76(1)]
IC50 [2]: 117 pM

GGGUCCUGCGUAAGAGUUUCCGUCUCGUAUGCUGUUACCC (ssRNA, 2'-F C and U; 2'-OH G; 2'-H (deoxy) A) [SEQ ID NO: 90]
binding result [3]: binds

GGGUCCUGACUAAGAGUUUCCGUCUCGUAGUCUGUUACCC (ssRNA, 2'-OMe G (G8,G34 2'-OH), dA, 2'-F C/U; 5',3' idT) [SEQ ID NO: 77(1)]
IC50 [2]: 126 pM

GGGUCCUGGAUAAGAGUUUCCGUCUCGUAUCCUGUUACCC (ssRNA, as 82(25) except 2'-OMe A15) [SEQ ID NO: 82(42)]
IC50 [4]: 37 pM

GGGUCCUGGAUAAGAGTUUCCGUCUCGUAUCCTGUUACCC (ssRNA, as 82(48) except dT17,dT33) [SEQ ID NO: 167]
IC50 [5]: 128 pM

GGGUCCUGGAUAAGAGUUUCCGUCUCGUAUCCUGUUACCC (ssRNA, as 82(25) except 2'-OMe A37) [SEQ ID NO: 82(47)]
IC50 [6]: 46 pM

B1: SEQ ID NO: 78(4) (printed 76(4) in sequence list) (ssRNA)
RNA: GGGUCCUGGCCAAGAGUUUCCGUCUCGUGGUCUGUUACCC
modifications: 2'-OMe G (G8,G34 2'-OH), dA, 2'-F C/U except 2'-OMe U4,C6,C10,C11,C21,U23,C26,U28,U31,C32,U35,C38-40; 5',3' idT
IC50 [4]: 37 pM | IC50 (NT-3 (neurotrophin-3)): 3000 pM | IC50 (NT-4 (neurotrophin-4)): < 100000 pM

GGGUCCUGGAUAAGAGUUUCCGUCUCGUAUCCTGUUACCC (ssRNA, as 82(1) except dT33) [SEQ ID NO: 158]
IC50 [7]: 100 pM | IC50 (NT-3 (neurotrophin-3)): < 30000 pM | IC50 (NT-4 (neurotrophin-4)): < 3000 pM

GGGUCCUGGAUAAGAGTUUCCGUCUCGUAUCCTGUUACCC (ssRNA, as 82(48) except dT17,dT33,dU36) [SEQ ID NO: 166]
IC50 [5]: 113 pM

GGGUCCUGGAUAAGAGUUUCCGUCUCGUAUCCUGUUACCC (ssRNA, as 82(25) except 2'-OMe A29) [SEQ ID NO: 82(46)]
IC50 [6]: 33 pM

B2: SEQ ID NO: 6 (ssRNA)
RNA: GGGAGAACUUCGACCAGAAGUGCAAUACUUUCGCGGCAUAUGUGCAAACCUUGCCACGACUAUGUGCGCAUACAUGGAUCCUC
modifications: 2'-F C and U; 2'-OH G; 2'-H (deoxy) A
binding result [8]: binds

B3: SEQ ID NO: 8 (ssRNA)
RNA: GGGAGAACUUCGACCAGAAGAUCCACUGGUACUACGUGACCCCGCAUAGGCAAUCCUGCUUAUGUGCGCAUACAUGGAUCCUC
modifications: 2'-F C and U; 2'-OH G; 2'-H (deoxy) A
binding result [8]: binds
